Measurements taken from US20230331811A1, “IMMOBILIZED SELF-ASSEMBLED PROTEIN MULTIMERS” (CCOA THERAPEUTICS INC., priority 2020, published 2023).

Target: T1, fibrinogen (Homo sapiens, UniProt P02671+P02675+P02679)
T1 sequence (P02671 20-629 limits assumed): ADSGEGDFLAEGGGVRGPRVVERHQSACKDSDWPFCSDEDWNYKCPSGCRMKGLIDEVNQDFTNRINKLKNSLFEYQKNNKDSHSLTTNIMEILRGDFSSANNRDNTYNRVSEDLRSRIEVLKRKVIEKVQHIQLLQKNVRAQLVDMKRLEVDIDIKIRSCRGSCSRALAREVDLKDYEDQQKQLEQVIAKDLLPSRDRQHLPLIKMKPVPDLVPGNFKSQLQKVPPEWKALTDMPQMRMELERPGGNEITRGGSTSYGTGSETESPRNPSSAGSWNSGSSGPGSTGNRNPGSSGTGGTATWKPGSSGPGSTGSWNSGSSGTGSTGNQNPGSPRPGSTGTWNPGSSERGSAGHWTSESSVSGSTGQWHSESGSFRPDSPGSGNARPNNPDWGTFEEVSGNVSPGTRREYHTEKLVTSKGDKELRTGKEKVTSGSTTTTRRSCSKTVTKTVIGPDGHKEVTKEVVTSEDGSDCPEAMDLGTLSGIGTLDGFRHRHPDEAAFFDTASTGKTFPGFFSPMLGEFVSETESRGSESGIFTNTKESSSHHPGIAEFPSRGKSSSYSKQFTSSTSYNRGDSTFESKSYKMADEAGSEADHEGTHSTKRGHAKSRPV
T1 sequence (P02675 31-491): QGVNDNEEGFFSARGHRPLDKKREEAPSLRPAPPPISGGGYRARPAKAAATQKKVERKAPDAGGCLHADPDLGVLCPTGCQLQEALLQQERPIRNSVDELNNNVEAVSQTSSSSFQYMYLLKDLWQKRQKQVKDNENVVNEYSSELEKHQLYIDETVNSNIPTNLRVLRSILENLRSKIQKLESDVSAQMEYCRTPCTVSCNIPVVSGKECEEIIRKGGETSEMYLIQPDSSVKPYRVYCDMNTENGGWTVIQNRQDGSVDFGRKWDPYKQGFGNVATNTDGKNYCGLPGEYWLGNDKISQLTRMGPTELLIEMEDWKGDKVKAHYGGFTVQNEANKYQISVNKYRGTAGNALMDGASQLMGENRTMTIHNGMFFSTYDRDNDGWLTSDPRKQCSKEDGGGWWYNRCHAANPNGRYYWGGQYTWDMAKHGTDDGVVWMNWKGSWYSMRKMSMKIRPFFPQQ
T1 sequence (P02679 27-453): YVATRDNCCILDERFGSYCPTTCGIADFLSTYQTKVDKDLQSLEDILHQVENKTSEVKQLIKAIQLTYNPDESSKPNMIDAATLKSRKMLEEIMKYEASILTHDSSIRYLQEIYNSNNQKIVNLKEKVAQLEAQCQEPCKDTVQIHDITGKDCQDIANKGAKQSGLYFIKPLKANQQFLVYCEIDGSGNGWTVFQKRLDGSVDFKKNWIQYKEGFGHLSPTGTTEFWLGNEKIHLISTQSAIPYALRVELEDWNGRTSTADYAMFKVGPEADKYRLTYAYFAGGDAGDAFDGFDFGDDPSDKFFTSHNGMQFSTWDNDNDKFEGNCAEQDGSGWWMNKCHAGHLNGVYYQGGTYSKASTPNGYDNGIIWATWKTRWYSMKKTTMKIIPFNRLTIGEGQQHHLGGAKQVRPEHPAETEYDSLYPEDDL
Experiment: Fibrinogen ELISA assay
Assay type: binding
Conditions: sandwich ELISA
Method: Fibrinogen ELISA Assay. To ensure similar immobilization levels of recombinant human ectodomain aIIbβ3 between the ELISA plate and integrin coupled magnetic beads, the wells of a 96-well micro plate (Nunc MaxiSorp) were incubated with the same aIIbβ3 concentration per surface area as during the preparation of the magnetic beads, 6.6×10^4 μg·mL^−1·c^−2. Each well was coated with aIIbβ3 or control proteins (BSA and β3−/− platelet lysate) by incubation of 6 μg/μL protein in binding buffer (TRIS buffered saline with 0.05% TWEEN-20 and 1 mM each of MgCl2, MnCl2 and CaCl2)) at 4° C. overnight. Incubation of 3% skim milk (ED Millipore) and 2% TWEEN-20 for 1 hour at 37° C. was used for blocking. The concentration of aIIbβ3 per surface area of bead used when coating SAM coated beads is 6.6×10^4 μg·mL^−1·cm^−2, therefore the wells of 96 well plates used were coated with the same density EDC/NHS quenching achieved by increase pH to 8.6. Bead concentration for synthesis: 6×10^9 beads·mL^−1; Integrin-bead reaction concentration=250 μg·mL^−1; Integrin Used=6.6×10^4 μg·mL^−1·cm^−2; Well Surface Area (50 μL)=0.93 cm^2; Concentration/wee for ELISA=6×10^4 μg·mL^−1 (6 μL/well in 50 μL total volume); Stock [αIIbβ3]=5×10^5 μg·mL^−1.
Fibrinogen binding. […] The OPD peroxidase reaction was stopped after 1 hour with 2 M H2SO4 and the absorbance was read at 492 nm. […]

“integrin: Recombinant human ectodomain αIIbβ3 immobilized on 96-well ELISA plate at the same density as on the beads” was tested, and the CLOD (fibrinogen detection) was 0.54 ± 0.07 µM and the Kd (integrin on plate surface, blocking step, HRP labelled detection antibody) was 2200 ± 400 nM.
